Assay results reported in article PMC9981704, “PARP1 allows proper telomere replication through TRF1 poly (ADP-ribosyl)ation and helicase recruitment”.

Tests used:
[1] = target: PARP1 (high specific activity) (human, UniProt P09874 1-1014); assay: EMSA; PARP1 alone, control from PARylation reaction; did not affect DNA migration; 20 mM Hepes pH 7.9, 100 mM NaCl, 50 mM KCl, 1 mM MgCl2, 0.1 mM EDTA, 1 mM DTT, 5% glycerol, 0.5 mg/ml BSA, 0.1% NP-40; 4 °C, 90 min; native 4.5% PAGE; settings: protein: commercial; label: 32P 5' end label (T4 PNK); blunt
Chain of PARP1 (high specific activity) (P09874 whole entry): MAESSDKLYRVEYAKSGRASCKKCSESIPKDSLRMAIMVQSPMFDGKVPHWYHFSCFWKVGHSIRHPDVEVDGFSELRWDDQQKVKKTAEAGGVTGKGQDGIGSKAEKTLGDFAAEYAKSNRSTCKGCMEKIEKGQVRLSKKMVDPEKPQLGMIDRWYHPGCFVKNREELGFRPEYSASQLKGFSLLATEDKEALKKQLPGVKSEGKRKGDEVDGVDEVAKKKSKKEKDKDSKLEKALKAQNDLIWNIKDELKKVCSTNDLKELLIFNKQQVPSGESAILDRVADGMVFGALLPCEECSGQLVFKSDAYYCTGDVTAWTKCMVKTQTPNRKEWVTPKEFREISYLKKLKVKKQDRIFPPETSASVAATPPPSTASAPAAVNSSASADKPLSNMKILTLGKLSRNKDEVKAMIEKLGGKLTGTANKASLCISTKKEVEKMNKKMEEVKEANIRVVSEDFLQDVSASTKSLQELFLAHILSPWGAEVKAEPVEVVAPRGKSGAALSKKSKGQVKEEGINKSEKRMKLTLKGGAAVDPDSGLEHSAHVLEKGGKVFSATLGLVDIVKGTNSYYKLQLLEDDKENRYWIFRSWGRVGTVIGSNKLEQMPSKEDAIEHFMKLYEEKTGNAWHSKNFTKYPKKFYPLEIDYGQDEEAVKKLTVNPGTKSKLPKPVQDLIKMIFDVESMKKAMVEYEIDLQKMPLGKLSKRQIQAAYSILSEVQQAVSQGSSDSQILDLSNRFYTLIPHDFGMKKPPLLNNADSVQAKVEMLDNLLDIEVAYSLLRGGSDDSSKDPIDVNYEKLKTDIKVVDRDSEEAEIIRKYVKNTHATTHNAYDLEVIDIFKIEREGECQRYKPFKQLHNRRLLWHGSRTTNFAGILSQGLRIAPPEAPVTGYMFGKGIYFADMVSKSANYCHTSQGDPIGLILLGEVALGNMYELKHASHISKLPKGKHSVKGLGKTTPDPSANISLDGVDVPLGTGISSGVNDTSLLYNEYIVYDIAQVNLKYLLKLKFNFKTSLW

[2] = target: TRF1 (unmodified, His-tagged full length) (human, UniProt P54274 1-439); assay: EMSA; unmodified TRF1, 1 ug protein, 0.5 ng DNA; 20 mM Hepes pH 7.9, 100 mM NaCl, 50 mM KCl, 1 mM MgCl2, 0.1 mM EDTA, 1 mM DTT, 5% glycerol, 0.5 mg/ml BSA, 0.1% NP-40; 4 °C, 90 min; native 4.5% PAGE; settings: protein: recombinant; tags: His (pTrc-HisB); chain copies: 2; label: 32P 5' end label (T4 PNK); blunt
Chain of TRF1 (unmodified, His-tagged full length) (P54274 whole entry): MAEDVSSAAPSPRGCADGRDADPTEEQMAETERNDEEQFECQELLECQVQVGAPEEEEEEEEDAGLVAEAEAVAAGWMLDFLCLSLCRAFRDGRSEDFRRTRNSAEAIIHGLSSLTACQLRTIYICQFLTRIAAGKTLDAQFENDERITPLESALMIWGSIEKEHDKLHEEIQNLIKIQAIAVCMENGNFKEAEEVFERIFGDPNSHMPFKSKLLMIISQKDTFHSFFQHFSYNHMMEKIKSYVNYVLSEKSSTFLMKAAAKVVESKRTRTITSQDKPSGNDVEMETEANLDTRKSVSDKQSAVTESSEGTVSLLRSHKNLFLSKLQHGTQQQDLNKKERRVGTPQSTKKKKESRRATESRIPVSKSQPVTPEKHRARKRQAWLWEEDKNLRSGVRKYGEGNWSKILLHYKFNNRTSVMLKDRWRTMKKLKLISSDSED

B1: telomeric duplex DNA (dsDNA)
DNA 1: GGGTTAGGGTTAGGGTTAGGGTTAGGGTTAGGGTTAGGGTTAGGGCCCCTC
DNA 2: GAGGGGCCCTAACCCTAACCCTAACCCTAACCCTAACCCTAACCCTAACCC
binding result [1]: no binding
binding result [2]: binds
